Where two headings read alike, the source gives them in different places.
Assays:
[1] = Urea titration of emission intensity spectra (Nanodrop3300) with ratiometric analysis, singly labeled conjugates; format: binding; set-up: key to Acrylodan Intensity / Badan Intensity: +, increases in response to urea; −, decreases; 0, no change; key to Badan Dipoles / Acrylodan Dipoles: blue, (maxima <500 nm); g, green (maxima >500 nm); b/g, mixed population; key to Acrylodan Shape / Badan Shape: m, monochromatic; d, dichromatic (i.e. spectral shape changes); 0, no change; conditions: for Acrylodan Intensity / Badan Intensity: emission intensity change on urea; for Acrylodan Shape / Badan Shape: emission spectrum shape change on urea; for Acrylodan Dipoles / Badan Dipoles: estimated change in populations of major emission bands; for Kd: urea
From the text: Determination of emission intensity spectra.
(§1) Ratiometric analysis of urea binding. […] 2
(§2) For a single urea-binding site, the fractional saturation is given by
(§3) [formula] where [L] is the ligand (urea) concentration and Kd the dissociation constant, ^trueKd for ytrue.
[formula] where ^appIλ2 and ^satIλ2 are the emission intensities of the monochromatic signal at wavelength λ2 of the ligand-free and ligand-bound protein, respectively.

[2] = Temperature- and urea-dependent fluorescence landscapes of fluorescent conjugates (Roche LightCycler); format: binding; set-up: key: y, yes; n, no; conditions: fluorescent response to urea
Experimental: We constructed 20 single cysteine mutants in csUBP7, exploring 7 endosteric, 12 peristeric, and 1 allosteric position (FIG. 9). At each position we attached the Prodan-derived fluorophores Acrylodan and Badan, which differ by one methylene group in their thiol-reactive linker. The fluorescent responses of these conjugates was determined initially as a function of urea concentration and temperature (FIG. 10). […] The ligand dependence of the emission spectra shapes was determined for these conjugates (Table 8).
Determination of temperature- and ligand-dependent fluorescence landscapes. […] Urea concentrations were varied from 0-4.8 M in 20 mM KCl, 20 mM MOPS (pH 7.4). […] Temperatures were advanced in 1K steps.
as §1, §2, §3
To obtain the temperature dependence of the binding reaction, the Kd values of all the individually determined isotherms were fit the Gibbs-Hemholtz equation (Layton and Hellinga, 2010, Biochemistry, 49, 10831-41):
[formula] where ΔGb^•(T) is the standard free energy of binding at 1 M ligand at temperature T,
[formula] Δ^refHb^• and Δ^refSb^• the molar enthalpy and entropy of binding, respectively, at the reference temperature, Tref, and ΔCp,b the heat capacity of the binding reaction.

[3] = csUBP7 Acrylodan conjugate, read-out: Acrylodan ^trueKd
[4] = csUBP7 Badan conjugate, read-out: Badan ^trueKd

Molecule	Kd [1, 3]	Kd [1, 4]	ratiometric response to urea ([1]; Acrylodan and Badan conjugates screened)	Acrylodan Intensity ([1]; csUBP7 Acrylodan conjugate)	Acrylodan Shape ([1]; csUBP7 Acrylodan conjugate)	Acrylodan Dipoles ([1]; csUBP7 Acrylodan conjugate)	Badan Intensity ([1]; csUBP7 Badan conjugate)	Badan Shape ([1]; csUBP7 Badan conjugate)	Badan Dipoles ([1]; csUBP7 Badan conjugate)	Response ([2]; Acrylodan conjugate)	Response ([2]; Badan conjugate)
csUBP7 R95C: csUBP7 95C cysteine mutant (SEQ ID NO: 32), tested as Acrylodan and Badan conjugates (conjugate, Acrylodan or Badan conjugate; csUBP7_95C (95C substitution mutant with signal peptide replaced with M and a GGSHHHHHH at C-terminus, and also comprising a C89A substitution)) MSSSESEKEKSEETIKVGILHSLSGTMSISEVSLKDAELMAIEEINNNGGVLGKKLEPIVEDGASDWPTFAEKAKKLLQKDKVAVIFGAWTSASCKAVLPVVEENNGLLFYPVQYEGLESSPNIFYMGAAPNQQIVPAVKWLFDNGKKRFYLLGSDYVFPRTANKIIKAYLKYLGGVVVGEEYTPLGHTDYSSVINKIKAAKPDVVFNTLNGDSNVAFFKQLKDAGIDANTLPVMSVSIAEEEIKGIGPEYLKGHLVTWNYFQSVDTPENKEFVEKYKKKYGEDRVTDDPIEAAYIGVYLWAKAVEKAGSTDVDKVREAAKGIEFNAPEGPVKIDGDNQHLYKTVRIGEILENGQIRELWKTNKPVKPDPYLKGYEWAQGLSEQGGSHHHHHH	300 µM	2200 µM	good ratiometric responses	−	m	b (blue, (maxima <500 nm))	+	d	g→b	y	y
csUBP7 M27C: csUBP7 27C cysteine mutant (SEQ ID NO: 24), tested as Acrylodan and Badan conjugates (conjugate, Acrylodan or Badan conjugate; csUBP7_27C (27C substitution mutant with signal peptide replaced with M and a GGSHHHHHH at C-terminus, and also comprising a C89A substitution)) MSSSESEKEKSEETIKVGILHSLSGTCSISEVSLKDAELMAIEEINNNGGVLGKKLEPIVEDGASDWPTFAEKAKKLLQKDKVAVIFGAWTSASRKAVLPVVEENNGLLFYPVQYEGLESSPNIFYMGAAPNQQIVPAVKWLFDNGKKRFYLLGSDYVFPRTANKIIKAYLKYLGGVVVGEEYTPLGHTDYSSVINKIKAAKPDVVFNTLNGDSNVAFFKQLKDAGIDANTLPVMSVSIAEEEIKGIGPEYLKGHLVTWNYFQSVDTPENKEFVEKYKKKYGEDRVTDDPIEAAYIGVYLWAKAVEKAGSTDVDKVREAAKGIEFNAPEGPVKIDGDNQHLYKTVRIGEILENGQIRELWKTNKPVKPDPYLKGYEWAQGLSEQGGSHHHHHH	4600 µM	3200 µM		+	m	g (g, green (maxima >500 nm))	−	d	g→b/g	y	y
bsUBP3 A79C: bsUBP3 79C cysteine mutant (SEQ ID NO: 46), tested as Acrylodan conjugate (conjugate, Acrylodan conjugate; bsUBP3_79C (79C substitution mutant with signal peptide replaced with M and a GGSHHHHHH at C-terminus)) MKVGILHSLSGTMAISEVSVHDAELIAIQEINQKGGVLGKKLEPVVEDGASDWPTYAEKMRKLLQQDKVAAVFGGWTSCSRKAMLPVVEQNNGLLFYPVQYEGMETSPNIFYTGATTNQQIVPAVDWLLKNKGKKFFLIGSDYVFPRTANKIIKAQVKAGGGEIAGEEYTPLGHTNYSTLVSKIKEKQPDVIFNTLNGDSNVAFFKQLKDAGISADDMPVMSASVAEEEIRGIGPDVLKGHYAVWNYFQTTNTSENQTFVKNYKKMNGDSRVTSDPIEAGYNAVYLWAAAVEKAKSFDVDKVKKAADGISFKAPGGTVKIDGDTQHLYKTVRIGQITGDGQFKEVWNSGEPVKPDPYLKTYDWAKGLSKGGSHHHHHH										y	
bsUBP3 L172C: bsUBP3 172C cysteine mutant (SEQ ID NO: 48), tested as Acrylodan conjugate (conjugate, Acrylodan conjugate; bsUBP3_172C (172C substitution mutant with signal peptide replaced with M and a GGSHHHHHH at C-terminus)) MKVGILHSLSGTMAISEVSVHDAELIAIQEINQKGGVLGKKLEPVVEDGASDWPTYAEKMRKLLQQDKVAAVFGGWTSASRKAMLPVVEQNNGLLFYPVQYEGMETSPNIFYTGATTNQQIVPAVDWLLKNKGKKFFLIGSDYVFPRTANKIIKAQVKAGGGEIAGEEYTPCGHTNYSTLVSKIKEKQPDVIFNTLNGDSNVAFFKQLKDAGISADDMPVMSASVAEEEIRGIGPDVLKGHYAVWNYFQTTNTSENQTFVKNYKKMNGDSRVTSDPIEAGYNAVYLWAAAVEKAKSFDVDKVKKAADGISFKAPGGTVKIDGDTQHLYKTVRIGQITGDGQFKEVWNSGEPVKPDPYLKTYDWAKGLSKGGSHHHHHH										y	

Further lines, with some results ahead:

Kd [1, 3]	Kd [1, 4]	Molecule	ratiometric response to urea ([1]; Acrylodan and Badan conjugates screened)	Acrylodan Intensity ([1]; csUBP7 Acrylodan conjugate)	Acrylodan Shape ([1]; csUBP7 Acrylodan conjugate)	Acrylodan Dipoles ([1]; csUBP7 Acrylodan conjugate)	Badan Intensity ([1]; csUBP7 Badan conjugate)	Badan Shape ([1]; csUBP7 Badan conjugate)	Badan Dipoles ([1]; csUBP7 Badan conjugate)	Response ([2]; Acrylodan conjugate)	Response ([2]; Badan conjugate)
5200 µM	300 µM	csUBP7 S30C: csUBP7 30C cysteine mutant (SEQ ID NO: 25), tested as Acrylodan and Badan conjugates (conjugate, Acrylodan or Badan conjugate; csUBP7_30C (30C substitution mutant with signal peptide replaced with M and a GGSHHHHHH at C-terminus, and also comprising a C89A substitution)) MSSSESEKEKSEETIKVGILHSLSGTMSICEVSLKDAELMAIEEINNNGGVLGKKLEPIVEDGASDWPTFAEKAKKLLQKDKVAVIFGAWTSASRKAVLPVVEENNGLLFYPVQYEGLESSPNIFYMGAAPNQQIVPAVKWLFDNGKKRFYLLGSDYVFPRTANKIIKAYLKYLGGVVVGEEYTPLGHTDYSSVINKIKAAKPDVVFNTLNGDSNVAFFKQLKDAGIDANTLPVMSVSIAEEEIKGIGPEYLKGHLVTWNYFQSVDTPENKEFVEKYKKKYGEDRVTDDPIEAAYIGVYLWAKAVEKAGSTDVDKVREAAKGIEFNAPEGPVKIDGDNQHLYKTVRIGEILENGQIRELWKTNKPVKPDPYLKGYEWAQGLSEQGGSHHHHHH		+	d	b/g→b	+	d	g→b	y	y
90 µM	300 µM	csUBP7 T26C: csUBP7 26C cysteine mutant (SEQ ID NO: 23), tested as Acrylodan and Badan conjugates (conjugate, Acrylodan or Badan conjugate; csUBP7_26C (26C substitution mutant with signal peptide replaced with M and a GGSHHHHHH at C-terminus, and also comprising a C89A substitution)) MSSSESEKEKSEETIKVGILHSLSGCMSISEVSLKDAELMAIEEINNNGGVLGKKLEPIVEDGASDWPTFAEKAKKLLQKDKVAVIFGAWTSASRKAVLPVVEENNGLLFYPVQYEGLESSPNIFYMGAAPNQQIVPAVKWLFDNGKKRFYLLGSDYVFPRTANKIIKAYLKYLGGVVVGEEYTPLGHTDYSSVINKIKAAKPDVVFNTLNGDSNVAFFKQLKDAGIDANTLPVMSVSIAEEEIKGIGPEYLKGHLVTWNYFQSVDTPENKEFVEKYKKKYGEDRVTDDPIEAAYIGVYLWAKAVEKAGSTDVDKVREAAKGIEFNAPEGPVKIDGDNQHLYKTVRIGEILENGQIRELWKTNKPVKPDPYLKGYEWAQGLSEQGGSHHHHHH		−	d	b→g	−	m	b/g	y	y

Reference: patent US11906524B2, “Urea biosensors and uses thereof” (Duke University, priority 2015, dated 2024)
